# Reference: patent US20130129739A1 (Bayer, published 2013)
# T1: extracellular domain of human PRLR (monomeric, soluble) (human, UniProt P16471 25-234)
# T1 construct: also called ECD-PRLR; ECD of PRLR
# T1 sequence: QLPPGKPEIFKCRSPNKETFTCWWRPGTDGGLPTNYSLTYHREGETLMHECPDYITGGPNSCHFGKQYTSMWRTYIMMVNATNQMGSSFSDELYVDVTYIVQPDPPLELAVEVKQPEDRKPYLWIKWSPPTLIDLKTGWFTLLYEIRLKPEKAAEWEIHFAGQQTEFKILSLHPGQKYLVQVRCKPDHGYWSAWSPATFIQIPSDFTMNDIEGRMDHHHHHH
# Biological target: T1, extracellular domain of human PRLR …
# Assay: ELISA: plate coated with human PRLR extracellular domain, Fab-containing E. coli supernatant, anti-flag-HRP, Amplex Red
# Procedure: 96 well microtiter plates were coated with 1 μg per milliliter of human PRLR. Plates were incubated over night at 4° C. After blocking with PBS buffer containing 3% bovine serum albumin, normalized E. coli-derived supernatants containing the Fab variants were added. Detection of formed complexes occurred via the addition of an anti-flag antibody (Sigma, A8592) labeled with horseradish peroxidase.
row,Binder,binding result
1,"005-C04-41-2 (Fab, V domains shown, Maturated 005-C04 variant; Fab in E. coli supernatant, flag-detected) VH: EVQLLESGGGLVQPGGSLRLSCAASGFTFSSYWNHWVRQAPGKGLEWVSDISRASSYTNYADSVKGRFTISRDNSKNTLYLQMNSLRAEDTAVYYCARGLDARRMDYWGQGTLVTVTS VL: QSVLTQPPSASGTPGQRVTISCTGSSSNIGYGYVVHWYQQLPGTAPKLLIYRNNQRPSGVPDRFSGSKSGTSASLAISGLRSEDEADYYCAAWDDSLNGWLFGGGTKLTVLG",binds
2,"005-C04-18-10-4 (Fab, V domains shown, Maturated 005-C04 variant; Fab in E. coli supernatant, flag-detected) VH: EVQLLESGGGLVQPGGSLRLSCAASGFTFSSYWMHWVRQAPGKGLEWVSDISSASSYTNYADSVKGRFTISRDNSKNTLYLQMNSLRAEDTAVYYCARGLDARRMDYWGQGTLVTVTS VL: QSVLTQPPSASGTPGQRVTISCTGSSSNIGAGYVVHWYQQLPGTAPKLLIYRNNWRPSGVPDRFSGSKSGTSASLAISGLRSEDEADYYCAAWDDSLNGWLFGGGTKLTVLG",binds
3,"005-C04-20-12-7 (Fab, V domains shown, Maturated 005-C04 variant; Fab in E. coli supernatant, flag-detected) VH: EVQLLESGGGLVQPGGSLRLSCAASGFTFSSYWMHWVRQAPGKGLEWVSDISSASSYTNYADSVKGRFTISRDNSKNTLYLQMNSLRAEDTAVYYCARGLDARRMDYWGQGTLVTVTS VL: QSVLTQPPSASGTPGQRVTISCTGSSSNIGAGYVVHWYQQLPGTAPKLLIYRNNQRQSGVPDRFSGSKSGTSASLAISGLRSEDEADYYCAAWDDSLNGWLFGGGTKLTVLG",binds
4,"005-C04-29-17-2 (Fab, V domains shown, Maturated 005-C04 variant; Fab in E. coli supernatant, flag-detected) VH: EVQLLESGGGLVQPGGSLRLSCAASGFTFSSYWMHWVRQAPGKGLEWVSDISSASSYTNYADSVKGRFTISRDNSKNTLYLQMNSLRAEDTAVYYCARGLDARRMDYWGQGTLVTVTS VL: QSVLTQPPSASGTPGQRVTISCTGSSSNIGAGYVVHWYQQLPGTAPKLLIYRNNQRPSGVPDRFSGSKSGTSASLAISGLRSEDEADYYCAAWDDSLGGWLFGGGTKLTVLG",binds
5,"005-C04-9-2 (Fab, V domains shown, Maturated 005-C04 variant; Fab in E. coli supernatant, flag-detected) VH: EVQLLESGGGLVQPGGSLRLSCAASGFTFSSYWWHWVRQAPGKGLEWVSDIARASSYTNYADSVKGRFTISRDNSKNTLYLQMNSLRAEDTAVYYCARGLDARRMDYWGQGTLVTVTS VL: QSVLTQPPSASGTPGQRVTISCTGSSSNIGYGYVVHWYQQLPGTAPKLLIYRNNWRQSGVPDRFSGSKSGTSASLAISGLRSEDEADYYCAAWDDSLNGWLFGGGTKLTVLG",binds
6,"005-C04-10-3 (Fab, V domains shown, Maturated 005-C04 variant; Fab in E. coli supernatant, flag-detected) VH: EVQLLESGGGLVQPGGSLRLSCAASGFTFSSYWWHWVRQAPGKGLEWVSDIARLSPYTNYADSVKGRFTISRDNSKNTLYLQMNSLRAEDTAVYYCARGLDARRMDYWGQGTLVTVTS VL: QSVLTQPPSASGTPGQRVTISCTGSSSNIGYGYVVHWYQQLPGTAPKLLIYRNNVRQSGVPDRFSGSKSGTSASLAISGLRSEDEADYYCAAWDDSLNGWLFGGGTKLTVLG",binds
7,"005-C04-2-2 (Fab, V domains shown, Maturated 005-C04 variant; Fab in E. coli supernatant, flag-detected) VH: EVQLLESGGGLVQPGGSLRLSCAASGFTFSSYWNHWVRQAPGKGLEWVSDMARLSPYTNYADSVKGRFTISRDNSKNTLYLQMNSLRAEDTAVYYCARGLDARRMDYWGQGTLVTVTS VL: QSVLTQPPSASGTPGQRVTISCTGSSSNIGYGYVVHWYQQLPGTAPKLLIYRNNVRQSGVPDRFSGSKSGTSASLAISGLRSEDEADYYCAAWDDSLNGWLFGGGTKLTVLG",binds
8,"005-C04-19-2 (Fab, V domains shown, Maturated 005-C04 variant; Fab in E. coli supernatant, flag-detected) VH: EVQLLESGGGLVQPGGSLRLSCAASGFTFSSYWNHWVRQAPGKGLEWVSDMARLSPYTNYADSVKGRFTISRDNSKNTLYLQMNSLRAEDTAVYYCARGLDARRMDYWGQGTLVTVTS VL: QSVLTQPPSASGTPGQRVTISCTGSSSNIGYGYVVHWYQQLPGTAPKLLIYRNNQRQSGVPDRFSGSKSGTSASLAISGLRSEDEADYYCAAWDDSLNGWLFGGGTKLTVLG",binds
9,"005-C04-20-2 (Fab, V domains shown, Maturated 005-C04 variant; Fab in E. coli supernatant, flag-detected) VH: EVQLLESGGGLVQPGGSLRLSCAASGFTFSSYWNHWVRQAPGKGLEWVSDIARLSSYTNYADSVKGRFTISRDNSKNTLYLQMNSLRAEDTAVYYCARGLDARRMDYWGQGTLVTVTS VL: QSVLTQPPSASGTPGQRVTISCTGSSSNIGYGYVVHWYQQLPGTAPKLLIYRNNQRPSGVPDRFSGSKSGTSASLAISGLRSEDEADYYCAAWDDSLNGWLFGGGTKLTVLG",binds
10,"005-C04-11-5 (Fab, V domains shown, Maturated 005-C04 variant; Fab in E. coli supernatant, flag-detected) VH: EVQLLESGGGLVQPGGSLRLSCAASGFTFSSYWWHWVRQAPGKGLEWVSDISRLSPYTNYADSVKGRFTISRDNSKNTLYLQMNSLRAEDTAVYYCARGLDARRMDYWGQGTLVTVTS VL: QSVLTQPPSASGTPGQRVTISCTGSSSNIGYGYVVHWYQQLPGTAPKLLIYRNNVRPSGVPDRFSGSKSGTSASLAISGLRSEDEADYYCAAWDDSLNGWLFGGGTKLTVLG",binds
11,"005-C04-21-2 (Fab, V domains shown, Maturated 005-C04 variant; Fab in E. coli supernatant, flag-detected) VH: EVQLLESGGGLVQPGGSLRLSCAASGFTFSSYWNHWVRQAPGKGLEWVSDMARASPYTNYADSVKGRFTISRDNSKNTLYLQMNSLRAEDTAVYYCARGLDARRMDYWGQGTLVTVTS VL: QSVLTQPPSASGTPGQRVTISCTGSSSNIGYGYVVHWYQQLPGTAPKLLIYRNNVRPSGVPDRFSGSKSGTSASLAISGLRSEDEADYYCAAWDDSLNGWLFGGGTKLTVLG",binds

# Now from value to binder:
row,binding result,Binder
1,binds,"005-C04-4-3-7 (Fab, V domains shown, Maturated 005-C04 variant; Fab in E. coli supernatant, flag-detected) VH: EVQLLESGGGLVQPGGSLRLSCAASGFTFSSYWMHWVRQAPGKGLEWVSDISSASSYTNYADSVKGRFTISRDNSKNTLYLQMNSLRAEDTAVYYCARGLDARRMDYWGQGTLVTVTS VL: QSVLTQPPSASGTPGQRVTISCTGSSSNIGYGYVVHWYQQLPGTAPKLLIYRNNQRPSGVPDRFSGSKSGTSASLAISGLRSEDEADYYCAAWDDSLNGWLFGGGTKLTVLG"
2,binds,"005-C04-2-7 (Fab, V domains shown, Maturated 005-C04 variant; Fab in E. coli supernatant, flag-detected) VH: EVQLLESGGGLVQPGGSLRLSCAASGFTFSSYWWHWVRQAPGKGLEWVSDISRASPYTNYADSVKGRFTISRDNSKNTLYLQMNSLRAEDTAVYYCARGLDARRMDYWGQGTLVTVTS VL: QSVLTQPPSASGTPGQRVTISCTGVSSNIGAGYVVHWYQQLPGTAPKLLIYRNNQRPSGVPDRFSGSKSGTSASLAISGLRSEDEADYYCAAWDDSLNGWLFGGGTKLTVLG"
3,binds,"005-C04-29-0 (Fab, V domains shown, Maturated 005-C04 variant; Fab in E. coli supernatant, flag-detected) VH: EVQLLESGGGLVQPGGSLRLSCAASGFTFSSYWNHWVRQAPGKGLEWVSDMSRASSYTNYADSVKGRFTISRDNSKNTLYLQMNSLRAEDTAVYYCARGLDARRMDYWGQGTLVTVTS VL: QSVLTQPPSASGTPGQRVTISCTGSSSNIGYGYVVHWYQQLPGTAPKLLIYRNNQRQSGVPDRFSGSKSGTSASLAISGLRSEDEADYYCAAWDDSLNGWLFGGGTKLTVLG"
4,binds,"005-C04-29-17-0 (Fab, V domains shown, Maturated 005-C04 variant; Fab in E. coli supernatant, flag-detected) VH: EVQLLESGGGLVQPGGSLRLSCAASGFTFSSYWMHWVRQAPGKGLEWVSDISSASSYTNYADSVKGRFTISRDNSKNTLYLQMNSLRAEDTAVYYCARGLDARRMDYWGQGTLVTVTS VL: QSVLTQPPSASGTPGQRVTISCTGSSSNIGAGYVVHWYQQLPGTAPKLLIYRNNQRPSGVPDRFSGSKSGTSASLAISGLRSEDEADYYCAAWDDSLSGWLFGGGTKLTVLG"
5,binds,"005-C04-29-17-3 (Fab, V domains shown, Maturated 005-C04 variant; Fab in E. coli supernatant, flag-detected) VH: EVQLLESGGGLVQPGGSLRLSCAASGFTFSSYWMHWVRQAPGKGLEWVSDISSASSYTNYADSVKGRFTISRDNSKNTLYLQMNSLRAEDTAVYYCARGLDARRMDYWGQGTLVTVTS VL: QSVLTQPPSASGTPGQRVTISCTGSSSNIGAGYVVHWYQQLPGTAPKLLIYRNNQRPSGVPDRFSGSKSGTSASLAISGLRSEDEADYYCAAWDDSLFGWLFGGGTKLTVLG"
6,binds,"005-C04-8-6 (Fab, V domains shown, Maturated 005-C04 variant; Fab in E. coli supernatant, flag-detected) VH: EVQLLESGGGLVQPGGSLRLSCAASGFTFSSYWWHWVRQAPGKGLEWVSDMSRASSYTNYADSVKGRFTISRDNSKNTLYLQMNSLRAEDTAVYYCARGLDARRMDYWGQGTLVTVTS VL: QSVLTQPPSASGTPGQRVTISCTGQSSNIGAGYVVHWYQQLPGTAPKLLIYRNNQRPSGVPDRFSGSKSGTSASLAISGLRSEDEADYYCAAWDDSLNGWLFGGGTKLTVLG"
7,binds,"005-C04-18-10-2 (Fab, V domains shown, Maturated 005-C04 variant; Fab in E. coli supernatant, flag-detected) VH: EVQLLESGGGLVQPGGSLRLSCAASGFTFSSYWMHWVRQAPGKGLEWVSDISSASSYTNYADSVKGRFTISRDNSKNTLYLQMNSLRAEDTAVYYCARGLDARRMDYWGQGTLVTVTS VL: QSVLTQPPSASGTPGQRVTISCTGSSSNIGAGYVVHWYQQLPGTAPKLLIYRNNVRPSGVPDRFSGSKSGTSASLAISGLRSEDEADYYCAAWDDSLNGWLFGGGTKLTVLG"
8,binds,"005-C04-21-1 (Fab, V domains shown, Maturated 005-C04 variant; Fab in E. coli supernatant, flag-detected) VH: EVQLLESGGGLVQPGGSLRLSCAASGFTFSSYWNHWVRQAPGKGLEWVSDIARLSPYTNYADSVKGRFTISRDNSKNTLYLQMNSLRAEDTAVYYCARGLDARRMDYWGQGTLVTVTS VL: QSVLTQPPSASGTPGQRVTISCTGSSSNIGYGYVVHWYQQLPGTAPKLLIYRNNVRQSGVPDRFSGSKSGTSASLAISGLRSEDEADYYCAAWDDSLNGWLFGGGTKLTVLG"
9,binds,"005-C04-25-6 (Fab, V domains shown, Maturated 005-C04 variant; Fab in E. coli supernatant, flag-detected) VH: EVQLLESGGGLVQPGGSLRLSCAASGFTFSSYWWHWVRQAPGKGLEWVSDMSRLSSYTNYADSVKGRFTISRDNSKNTLYLQMNSLRAEDTAVYYCARGLDARRMDYWGQGTLVTVTS VL: QSVLTQPPSASGTPGQRVTISCTGSSSNIGYGYVVHWYQQLPGTAPKLLIYRNNVRQSGVPDRFSGSKSGTSASLAISGLRSEDEADYYCAAWDDSLNGWLFGGGTKLTVLG"
